B1: 小鼠IGF-1R(1-903)-Fc (Fc fusion)
chain: not shown
notes: range 1-903; also called mIGF-1R-Fc; mIGF1R; not shown: C-terminal human IgG1-Fc tag
B2: M12-E01 Fab (Fab, V domains shown)
VH: EVQLLESGGGLVQPGGSLRLSCAASGFTFSPYSMLWVRQAPGKGLEWVSSIGSSGGSTRYADSVKGRFTISRDNSKNTLYLQMNSLRAEDTAMYYCARVRGILHYDILIGRNLYYYYMDVWGKGTTVTVSS
VL: QYELTQPPSVSEAPRQRVTISCSGSSSNIGNNAINWYQQLPGKPPKLLIYYDDLLPSGVSDRFSGSKSGTSGSLAISGLQSEDEADYYCAAWDDNLNGVIFGGGTKLTVL
notes: Human Fab from a phage library (VH3-23, lambda light chain)
B3: M13-C06 Fab (Fab, V domains shown)
VH: EVQLLESGGGLVQPGGSLRLSCAASGFTFSIYRMQWVRQAPGKGLEWVSGISPSGGTTWYADSVKGRFTISRDNSKNTLYLQMNSLRAEDTAVYYCARWSGGSGYAFDIWGQGTMVTVSS
VL: DIQMTQSPLSLSASVGDRVTITCQASRDIRNYLNWYQQKPGKAPKLLIYDASSLQTGVPSRFGGSGSGTDFSFTIGSLQPEDIATYYCQQFDSLPHTFGQGTKLEIK
notes: Human Fab from a phage library (VH3-23 germline framework, kappa light chain)
B4: M13-C06 antibody (full-length, IgG4 version not stated) (antibody, V domains shown)
VH: B3 VH
VL: B3 VL
notes: Fully human full-length antibody; In tr-FRET it carried a europium chelate (10.3:1 Eu:C06); also called M13-C06_Ab; Eu-C06
B5: M14-B01 Fab (Fab, V domains shown)
VH: EVQLLESGGGLVQPGGSLRLSCAASGFTFSNYHMAWVRQAPGKGLEWVSVISPTGGRTTYADSVKGRFTISRDNSKNTLYLQMNSLRAEDTATYYCARAGYSYGYGYFDYWGQGTLVTVSS
VL: DIQMTQFPATLSVSPGERATLSCRASQSVMRNLAWYQQKPGQPPRLLIYGASKRATGIPARFSGSGSGTAFTLTISNLEPEDFAVYYCHQRSTWPLGTFGPGTKLEAK
notes: Human Fab from a phage library (VH3-23, kappa)
B6: M14-G11.G4.P (antibody, human IgG4, V domains shown, not shown: a dimerising Fc or GST)
VH: EVQLLESGGGLVQPGGSLRLSCAASGFTFSNYPMYWVRQAPGKGLEWVSRISSSGGRTVYADSVKGRFTISRDNSKNTLYLQMNSLRAEDTAVYYCARDRWSRSAAEYGLGGYWGQGTLVTVSS
VL: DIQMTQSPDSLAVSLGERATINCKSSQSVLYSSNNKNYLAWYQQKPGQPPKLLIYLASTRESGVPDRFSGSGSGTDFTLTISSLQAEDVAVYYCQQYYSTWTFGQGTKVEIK

For assay [1], the target named is B4. Description: tr-FRET competition against Cy5-IGF1R-His10 for Eu-C06.
Assay [2] addresses T1, 人INSR(28-956)-His 10 (human, UniProt P06213 28-956).
T1 construct: range 28-956; Bought from R&D Systems; also called INSR-His 10; rh-INSR (R&D Systems #1544-IR)
Description: ELISA on plates coated with rh-INSR.

In assay [3] the target is B1. Description: SPR, compared with hIGF-1R-Fc.
The target in assay [4] is B1. Description: SPR, receptor-Fc captured by anti-human IgG-Fc, Fab injected, 1:1 model (also printed as 89.1nM).
For assay [5], the target named is B1. Description: SPR, receptor-Fc captured by anti-human IgG-Fc, Fab injected, 1:1 model.
Assay [6] has as its target B1. Description: SPR, second run with 3 h dissociation.
For assay [7], the target named is T1, 人INSR(28-956)-His 10. Description: tr-FRET competition (Eu-C06 / Cy5-hIGF-1R-His10).
In assay [8] the target is human IGF-1R expressed on cells (human). Description: cell-based or functional assay.

T1 sequence (P06213 other isoform, or with tags, fused parts or gaps limits assumed): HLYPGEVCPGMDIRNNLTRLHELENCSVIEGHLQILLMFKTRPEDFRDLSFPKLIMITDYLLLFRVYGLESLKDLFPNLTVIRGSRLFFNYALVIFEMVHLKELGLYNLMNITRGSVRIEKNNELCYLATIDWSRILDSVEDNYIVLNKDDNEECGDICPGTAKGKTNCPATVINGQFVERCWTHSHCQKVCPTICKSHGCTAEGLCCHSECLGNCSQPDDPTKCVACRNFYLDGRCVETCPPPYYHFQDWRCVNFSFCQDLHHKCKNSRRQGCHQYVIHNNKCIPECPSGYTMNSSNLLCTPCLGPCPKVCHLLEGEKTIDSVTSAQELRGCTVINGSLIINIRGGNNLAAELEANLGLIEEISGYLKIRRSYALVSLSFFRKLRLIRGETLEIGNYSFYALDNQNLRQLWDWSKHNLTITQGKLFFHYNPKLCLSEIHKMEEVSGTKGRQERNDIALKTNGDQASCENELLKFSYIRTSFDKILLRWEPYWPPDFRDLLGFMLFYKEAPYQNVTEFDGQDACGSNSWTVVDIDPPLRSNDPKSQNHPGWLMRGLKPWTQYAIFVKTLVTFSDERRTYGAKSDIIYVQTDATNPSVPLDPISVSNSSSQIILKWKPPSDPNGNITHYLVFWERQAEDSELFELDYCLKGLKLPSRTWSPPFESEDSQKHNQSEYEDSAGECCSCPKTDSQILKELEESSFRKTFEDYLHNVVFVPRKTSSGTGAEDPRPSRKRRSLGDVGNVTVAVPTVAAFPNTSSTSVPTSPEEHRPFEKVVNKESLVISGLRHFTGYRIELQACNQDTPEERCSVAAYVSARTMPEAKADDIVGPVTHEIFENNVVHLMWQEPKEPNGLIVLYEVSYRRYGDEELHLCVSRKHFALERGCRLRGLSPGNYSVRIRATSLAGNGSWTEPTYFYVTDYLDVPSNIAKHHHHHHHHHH
Sequence of 小鼠IGF-1R(1-903)-Fc (Q60751 31-933 limits assumed): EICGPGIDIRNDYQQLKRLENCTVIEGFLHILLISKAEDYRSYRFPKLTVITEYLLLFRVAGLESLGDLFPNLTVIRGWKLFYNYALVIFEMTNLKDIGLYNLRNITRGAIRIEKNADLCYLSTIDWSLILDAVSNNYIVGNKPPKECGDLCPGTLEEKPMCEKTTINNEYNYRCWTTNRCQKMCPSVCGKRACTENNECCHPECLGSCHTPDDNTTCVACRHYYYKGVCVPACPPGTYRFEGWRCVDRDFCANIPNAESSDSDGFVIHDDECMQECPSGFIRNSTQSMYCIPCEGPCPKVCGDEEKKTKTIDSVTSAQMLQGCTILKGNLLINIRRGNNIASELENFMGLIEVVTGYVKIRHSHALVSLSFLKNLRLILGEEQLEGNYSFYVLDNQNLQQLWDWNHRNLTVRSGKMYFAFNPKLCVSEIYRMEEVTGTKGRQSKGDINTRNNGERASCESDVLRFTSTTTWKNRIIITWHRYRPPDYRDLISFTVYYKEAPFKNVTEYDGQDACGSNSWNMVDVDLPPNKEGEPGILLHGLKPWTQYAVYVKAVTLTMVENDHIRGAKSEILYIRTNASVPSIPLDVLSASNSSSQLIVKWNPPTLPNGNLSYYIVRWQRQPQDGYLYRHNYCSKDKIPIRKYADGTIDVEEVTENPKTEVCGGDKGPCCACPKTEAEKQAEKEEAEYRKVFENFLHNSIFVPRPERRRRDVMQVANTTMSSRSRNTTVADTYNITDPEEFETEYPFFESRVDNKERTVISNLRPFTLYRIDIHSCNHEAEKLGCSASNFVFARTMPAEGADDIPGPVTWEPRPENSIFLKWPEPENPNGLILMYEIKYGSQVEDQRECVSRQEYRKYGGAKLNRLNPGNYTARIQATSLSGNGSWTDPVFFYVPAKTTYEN

For the molecule B1, the IC50 in assay [1] was over 100 µg/mL.
On to B2, for which the binding result with 人INSR(28-956)-His 10 [2] was “no binding (tested: 2μM)”.
On to B3, for which the “fold decrease of binding against human IGF-1R” value with 小鼠IGF-1R(1-903)-Fc [3] turned out to be 100 fold. Besides, the affinity with 小鼠IGF-1R(1-903)-Fc [4], expressed as Kd, was 89.1 nM. Also, the binding result with 人INSR(28-956)-His 10 [2] was “no binding (tested: 2μM)”. The molecule further registered a kon with 小鼠IGF-1R(1-903)-Fc [5] of 471 M⁻¹ s⁻¹. For the same molecule, the koff with 小鼠IGF-1R(1-903)-Fc [6] came out at 4.2e-05 s⁻¹.
On to B4, for which, in the assay with 人INSR(28-956)-His 10 [7], the binding result is “no binding (tested: IC50以上100倍的浓度)”.
In the case of B5, the binding result with 人INSR(28-956)-His 10 [2] is given as “no binding (tested: 2μM)”.
B6: in assay [8], the “inhibition of IGF-1- and IGF-2-mediated IGF-1R phosphorylation in MCF-7 cells, EC50” value was under 1 nM.

The record behind these values is CN101415728A (dated 2009).
